Test results reported in article PMC7018876, “The novel llama-human chimeric antibody has potent effect in lowering LDL-c levels in hPCSK9 transgenic rats” (Clinical and Translational Medicine, 2020).

Columns and labels:
[1] = molecular target: T1, human proprotein convertase subtilisin/kexin type 9, his tagged antigen (Homo sapiens, UniProt Q8NBP7); assay: SPR; hPCSK9-his on CM5 chip (~800 RU); 6 or 7-point two-fold dilutions of the VHH-based proteins injected; 25 °C; global fit with floating Rmax; Biacore T200; details: both partners purified
T1 construct: human PCSK9; also called hPCSK9; PCSK9; source: bought: Sinobiological, China, Cat# 29698-H08H

[2] = molecular target: T1, human proprotein convertase …; assay: SPR; lysate kinetics screening; hPCSK9-his immobilised on CM5 chip (~18000 RU); supernatants of TES lysates of clones flowed over; 25 °C; binding 120 s, dissociation 140 s; binding value read at ~120 s, stability value at ~135 s; Biacore T200; details: one partner purified

T1 sequence (Q8NBP7 31-692): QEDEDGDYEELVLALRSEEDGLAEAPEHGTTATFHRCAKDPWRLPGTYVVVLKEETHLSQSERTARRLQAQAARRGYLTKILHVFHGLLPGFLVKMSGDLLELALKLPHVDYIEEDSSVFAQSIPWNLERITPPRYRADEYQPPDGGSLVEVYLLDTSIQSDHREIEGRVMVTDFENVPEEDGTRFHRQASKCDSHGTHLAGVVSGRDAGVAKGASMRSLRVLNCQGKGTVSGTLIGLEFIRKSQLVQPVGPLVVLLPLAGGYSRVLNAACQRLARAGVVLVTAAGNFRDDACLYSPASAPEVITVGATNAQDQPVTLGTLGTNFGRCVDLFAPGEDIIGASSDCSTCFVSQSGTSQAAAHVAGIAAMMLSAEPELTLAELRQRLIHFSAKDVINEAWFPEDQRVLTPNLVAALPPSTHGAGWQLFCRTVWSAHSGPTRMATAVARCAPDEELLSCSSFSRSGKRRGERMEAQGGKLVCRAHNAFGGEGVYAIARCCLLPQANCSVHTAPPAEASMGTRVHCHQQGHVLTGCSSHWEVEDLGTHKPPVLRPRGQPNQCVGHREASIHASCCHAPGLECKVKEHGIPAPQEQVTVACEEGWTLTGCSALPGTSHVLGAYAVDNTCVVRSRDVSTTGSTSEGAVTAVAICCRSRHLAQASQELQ

Row | Binder | Kd [1] | koff [1] | kon [1] | binding value (RU) [2] | stability value (RU) [2]
1 | VHH-G8 (VHH, llama anti-hPCSK9 VHH from an immune phage library; source: E. coli, supernatant of TES lysate (screening); E. coli induced by IPTG, and Pichia pastoris X33, purified (Histrap FF column)) VHH: DVQLVESGGGSVQAGGSLTLSCVVSGYRGQKICTGWFRQFPGMEREAVARILPRGPNTQYTDSVKGRFTISQDAAKNTVNLQMSSLKPKDTAMYYCAQGWGGASDWALQPRRYNYWGQGTQVTVSS | 73 nM | 0.0114 s⁻¹ | 162000 M⁻¹ s⁻¹ | 132 RU | 160 RU
2 | VHH-H12 (VHH, llama anti-hPCSK9 VHH from an immune phage library; source: E. coli, supernatant of TES lysate (screening); E. coli induced by IPTG, and Pichia pastoris X33, purified (Histrap FF column)) VHH: GGGLVQAGGSLRLSCAASRSTFSGYAMAWFRQAPGKEREFVACIEREIPGHPAWSGLTYYADSKKGRFTISRDNAKNTVYLQMNSLKPEDTAVYYCAAGLKYPAQKHYDYDYWGQGTQVTVPS | 704 nM | 0.00524 s⁻¹ | 7440 M⁻¹ s⁻¹ | 272 RU | 373 RU
3 | VHH-B11 (VHH, llama anti-hPCSK9 VHH from an immune phage library; 17 kDa on SDS-PAGE; also called monovalent VHH-B11; monovalency VHH-B11; source: E. coli, supernatant of TES lysate (screening); E. coli induced by IPTG, and Pichia pastoris X33, purified (Histrap FF column)) VHH: EVQLVESGGGSVQAGGSLRLSCTVSGYTYSSNCMGWFRQAPGKEHEGVASIYIGGGSTYYADSVKGRFTISQDNAKNTVYLQMNSLKPEDTAMYYCAVGCQGLVDFGYWDQGTQVTVSS | 8.69 nM | 0.00235 s⁻¹ | 271000 M⁻¹ s⁻¹ | 409 RU | 472 RU
4 | VHH-A6 (VHH, llama anti-hPCSK9 VHH from an immune phage library; source: E. coli, supernatant of TES lysate (screening); E. coli induced by IPTG, and Pichia pastoris X33, purified (Histrap FF column)) VHH: PGAAAGVGGGSVQAGGSLRLSCAASRYTDRTRCIAWFRQVPGKEREGVACLDRAGGQSAYADSAKGRFTVSQDNAGNTVYLQMDNLIPEDSAMYYCAAAGVGQWYTCLQKFIRDKRSFANWGQGTQVTVSS | 29 nM | 0.000447 s⁻¹ | 15400 M⁻¹ s⁻¹ | 166 RU | 239 RU
